Test results from patent US20040109857A1 (Novartis, published 2004).

B1: 15B8, fully human anti-CD40 monoclonal antibody (antibody, human IgG2, V domains shown)
VH: QVQLQESGGGVVQPGRSLRLSCAASGFTFNNFGIHWVRQAPGKGLEWVAVISYDGSDKYYADSVKGRFTISRDNSKNTLNLQMNSLRAEDTAVYYCARDRRYYYHYYGMDVWGQGTMVTVSS
VL: DIVMTQSPLSLSVAPGQPASISCKSSQSLLESYGETYLYWYLQKPGQPPQLLIYAVFKRFSGVPDRFSGSGSGTDFTLKISRVEAEDVGVYYCMQSMQLPLTFGGGTKVEIK
notes: Human IgG2 isotype with human kappa light chain, from hybridoma 15B8 (Xenomouse); two heavy and two light chains, 1,284 residues in all; In one FACS format it was directly FITC-labelled; also called antagonist anti-CD40 antibody 15B8; 15B8 MAb

Key:
[1] = biological target: chimpanzee CD40 expressed on peripheral blood B cells (chimpanzee) (UniProt K7BNQ5); assay: cell-based or functional assay
chimpanzee CD40 expressed on peripheral blood B cells (chimpanzee), sequence (K7BNQ5 entry or part of it limits assumed): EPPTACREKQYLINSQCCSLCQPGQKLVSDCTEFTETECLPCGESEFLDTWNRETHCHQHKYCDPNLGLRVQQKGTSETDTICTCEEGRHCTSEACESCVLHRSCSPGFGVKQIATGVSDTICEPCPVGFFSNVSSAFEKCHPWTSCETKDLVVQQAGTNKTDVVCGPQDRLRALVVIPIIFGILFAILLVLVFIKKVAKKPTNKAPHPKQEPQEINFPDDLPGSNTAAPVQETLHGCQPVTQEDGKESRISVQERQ

[2] = biological target: chimpanzee CD40 expressed on peripheral blood B cells (chimpanzee, UniProt K7BNQ5 21-277); assay: cell-based or functional assay
chimpanzee CD40 expressed on peripheral blood B cells, sequence (K7BNQ5 entry or part of it limits assumed): as above

[3] = biological target: T1, human CD40 (human, UniProt P25942 21-193, limits assumed); assay: BIACore assay
T1 construct: CD40 as used in the BIACore assay; also called CD40 antigen
T1 sequence (P25942 21-193 limits assumed): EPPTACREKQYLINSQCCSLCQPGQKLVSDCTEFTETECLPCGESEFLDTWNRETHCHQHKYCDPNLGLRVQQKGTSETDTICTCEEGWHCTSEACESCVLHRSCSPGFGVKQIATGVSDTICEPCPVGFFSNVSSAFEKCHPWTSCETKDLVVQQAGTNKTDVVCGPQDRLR

Row | Molecule | CD40L fold increase of proliferation over huIgG2 at 5 ug/ml; chimp PBMC, 1 sample [1] [fold] | 15B8 fold increase of proliferation over huIgG2; chimp PBMC, 1 sample, 15B8 5 ug/ml [2] [fold] | Kd [3] [nM]
1 | human CD40L expressed on transfected cells (CHO cells; murine L-cells) (from UniProt P29965 1-261) (ligand) | 10.2 | – | –
2 | B1 | – | 2.46 | 3.1
